Where “and” joins values, the source holds several entries; their conditions need not be identical. Identical values can stand only once. Like-named read-outs stand apart in the source and are kept apart here.

Test [1] concerns the target human IgG (human). The test is described as follows: BLI (Octet), gEgI on Ni-NTA sensor, hIgG in solution.
In test [2] the target is human IgG (human). The test is described as follows: BLI Octet, construct on Ni-NTA sensor, hIgG in solution.
Test [3] has as its target Human IgG isotype control (ThermoFischer Scientific, ref 12000C) (human). Put plainly: BLI, gEgI on Ni-NTA tips, hIgG in solution.
Test [4] deals with human IgG (human). The test is described as follows: BLI (Octet), gEgI on Ni-NTA sensor, hIgG in solution. The source holds these as a separate data set.

In test [1], “HSV2-gE_A248T V340W_gI (from UniProt P89475 21-416; P06764 21-256) (receptor)” registered a Kd of 0.001 nM and a Response of 0.0605 nm. In test [2], the Kd is below 0.001 nM, the Response (nm) was found to be 0.0605 nm, the koff is below 1e-07 s⁻¹ and the kon was 3020 M⁻¹ s⁻¹.
Consider “HSV2-gE_H245G R320D_gI (from UniProt P89475 21-416; P06764 21-256) (receptor)”, for which, in test [1], the Kd was 14200 nM and the Response was 0.0927 nm. In test [2], the Kd was 14200 nM, the Response (nm) came to 0.0927 nm, the off-rate (koff) is 0.00667 s⁻¹ and the kon was determined as 469 M⁻¹ s⁻¹.
In test [1], “HSV2-gE_V340W_gI (from UniProt P89475 21-416; P06764 21-256) (receptor)” gave a Kd of 0.001 nM and a Response of 0.0751 nm. In test [2], this substance returned a Kd below 0.001 nM, a Response (nm) of 0.0751 nm, a koff below 1e-07 s⁻¹ and a kon of 3520 M⁻¹ s⁻¹.
Consider “HSV2-gE_H245S R320T_gI (from UniProt P89475 21-416; P06764 21-256) (receptor)”, for which, in test [1], the Kd stood at 718 nM and the Response was found to be 0.205 nm. In test [2], this substance returned a Kd of 718 nM, a Response (nm) of 0.205 nm, a koff of 0.00503 s⁻¹ and a kon of 7000 M⁻¹ s⁻¹.
In test [1], “HSV2-gE_H245A R320D_gI (from UniProt P89475 21-416; P06764 21-256) (receptor)” gave a Kd of 6420 nM and a Response of 0.116 nm. Besides, in test [2], the Kd came out at 6420 nM, the Response (nm) turned out to be 0.116 nm, the koff is 0.00704 s⁻¹ and the kon turned out to be 1100 M⁻¹ s⁻¹.
In test [1], “HSV2-gE_H245A R320G_gI (from UniProt P89475 21-416; P06764 21-256) (receptor)” displayed a Kd of 1410 nM and a Response of 0.192 nm. In test [2], the Kd was found to be 1410 nM, the Response (nm) amounted to 0.192 nm, the koff was found to be 0.00589 s⁻¹ and the kon was found to be 4190 M⁻¹ s⁻¹.
Consider “HSV2-gE_A246W R320G_gI (from UniProt P89475 21-416; P06764 21-256) (receptor)”, for which, in test [1], the Kd stood at 0.001 nM and the Response amounted to 0.0639 nm. Further, in test [2], the Kd was below 0.001 nM, the Response (nm) was found to be 0.0639 nm, the off-rate constant (koff) is below 1e-07 s⁻¹ and the kon turned out to be 3430 M⁻¹ s⁻¹.
On to “HSV2-gE_A248K V340W_gI (from UniProt P89475 21-416; P06764 21-256) (receptor)”, for which, in test [1], the Kd was determined as 0.001 nM and the Response is 0.0613 nm. In test [2], this substance yielded a Kd below 0.001 nM, a Response (nm) of 0.0613 nm, an off-rate constant (koff) below 1e-07 s⁻¹ and a kon of 3780 M⁻¹ s⁻¹.
Take “HSV2-gE_H245S R320D_gI (from UniProt P89475 21-416; P06764 21-256) (receptor)”: in test [1], the Kd came to 1740 nM and the Response was 0.121 nm. Moreover, in test [2], the Kd came out at 1740 nM, the Response (nm) stood at 0.121 nm, the koff was 0.00468 s⁻¹ and the kon was found to be 2690 M⁻¹ s⁻¹.
In test [1], “HSV2-gE_A248T V340M_gI (from UniProt P89475 21-416; P06764 21-256) (receptor)” returned a Kd of 0.001 nM and a Response of 0.108 nm. In test [2], this substance returned a Kd below 0.001 nM, a Response (nm) of 0.108 nm, a koff below 1e-07 s⁻¹ and a kon of 4440 M⁻¹ s⁻¹.
Turning to “HSV2-gE_A246W_gI (from UniProt P89475 21-416; P06764 21-256) (receptor)”, in test [1], the Kd was determined as 6910 nM and the Response is 0.231 nm. In test [2], this substance returned a Kd of 6910 nM, a Response (nm) of 0.231 nm, a koff of 0.00621 s⁻¹ and a kon of 898 M⁻¹ s⁻¹.
In test [1], “HSV2-gE_V340D_gI (from UniProt P89475 21-416; P06764 21-256) (receptor)” showed a Kd of 0.001 nM and a Response of 0.115 nm. Moreover, in test [2], the Kd is below 0.001 nM, the Response (nm) was found to be 0.115 nm, the koff is below 1e-07 s⁻¹ and the kon is 5330 M⁻¹ s⁻¹.
On to “HSV2-gE_H245A R320T_gI (from UniProt P89475 21-416; P06764 21-256) (receptor)”, for which, in test [1], the Kd was 1160 nM and the Response was found to be 0.23 nm. In test [2], the Kd amounted to 1160 nM, the Response (nm) came out at 0.23 nm, the dissociation rate constant (koff) amounted to 0.00537 s⁻¹ and the kon worked out at 4620 M⁻¹ s⁻¹.
On to “HSV2-gE_A248T_gI (from UniProt P89475 21-416; P06764 21-256) (receptor)”, for which, in test [1], the Kd came out at 12200 nM and the Response turned out to be 0.123 nm. In test [2], the Kd is 12200 nM, the Response (nm) was 0.123 nm, the koff is 0.00574 s⁻¹ and the kon is 470 M⁻¹ s⁻¹.
In the case of “HSV2-gE_A248G V340W_gI (from UniProt P89475 21-416; P06764 21-256) (receptor)”, in test [1], the Kd amounted to 39200 nM and the Response turned out to be 0.0826 nm. For the same substance, in test [2], the Kd amounted to 39200 nM, the Response (nm) was 0.0826 nm, the koff was 0.0107 s⁻¹ and the kon was 273 M⁻¹ s⁻¹.
In test [1], “HSV2-gE_A248T F322A_gI (from UniProt P89475 21-416; P06764 21-256) (receptor)” yielded a Kd of 7010 nM and a Response of 0.167 nm. In test [2], this substance yielded a Kd of 7010 nM, a Response (nm) of 0.167 nm, a koff of 0.00629 s⁻¹ and a kon of 897 M⁻¹ s⁻¹.
In test [1], “HSV2-gE_H245D_gI (from UniProt P89475 21-416; P06764 21-256) (receptor)” registered a Kd of 17000 nM and a Response of 0.133 nm. In test [2], this substance had a Kd of 17000 nM, a Response (nm) of 0.133 nm, a koff of 0.00772 s⁻¹ and a kon of 453 M⁻¹ s⁻¹.
In test [1], “HSV2-gE_H245G R320G_gI (from UniProt P89475 21-416; P06764 21-256) (receptor)” came in with a Kd of 777 nM and a Response of 0.225 nm. Besides, in test [2], the Kd amounted to 777 nM, the Response (nm) came out at 0.225 nm, the koff is 0.00407 s⁻¹ and the kon came to 5240 M⁻¹ s⁻¹.
As to “HSV2-gE_V340F_gI (from UniProt P89475 21-416; P06764 21-256) (receptor)”, in test [1], the Kd came out at 0.001 nM and the Response was 0.114 nm. In test [2], this substance gave a Kd below 0.001 nM, a Response (nm) of 0.114 nm, a koff below 1e-07 s⁻¹ and a kon of 3140 M⁻¹ s⁻¹.
In test [1], “HSV2-gE_A246W R320T_gI (from UniProt P89475 21-416; P06764 21-256) (receptor)” returned a Kd of 0.001 nM and a Response of 0.0712 nm. In test [2], this substance displayed a Kd below 0.001 nM, a Response (nm) of 0.0712 nm, a koff below 1e-07 s⁻¹ and a kon of 1510 M⁻¹ s⁻¹.
In test [1], “HSV2-gE_A246W-R320D_gI (from UniProt P89475 21-416; P06764 21-256) (receptor)” displayed a Kd of 0.001 nM and a Response of 0.0712 nm.
In test [3], “HSV62 (HSV2- gE_N241A-R320D_gI) (from UniProt P89475 21-416; P06764 21-256) (receptor)” came in with a Kd of 4200 nM, a Relative Affinity (%) compared to control construct HSV34 of 3%, a koff of 0.00129 s⁻¹ and a kon of 317 M⁻¹ s⁻¹.
In test [3], “HSV47 (HSV2- gE_P319R_gI) (from UniProt P89475 21-416; P06764 21-256) (receptor)” showed a Kd of 2550 nM, a Relative Affinity (%) compared to control construct HSV34 of 5%, a koff of 0.00355 s⁻¹ and a kon of 1490 M⁻¹ s⁻¹.
As for “HSV2-gE_H245S R320G_gI (from UniProt P89475 21-416; P06764 21-256) (receptor)”, in test [1], the Kd was determined as 745 nM and the Response amounted to 0.196 nm. In test [2], this substance yielded a Kd of 745 nM, a Response (nm) of 0.196 nm, a koff of 0.0039 s⁻¹ and a kon of 5240 M⁻¹ s⁻¹.
In test [1], “HSV2-gE_P318I_gI (from UniProt P89475 21-416; P06764 21-256) (receptor)” gave a Kd of 4440 nM and a Response of 0.163 nm. In addition, in test [2], the Kd came out at 4440 nM, the Response (nm) was 0.163 nm, the koff is 0.00752 s⁻¹ and the kon was 1690 M⁻¹ s⁻¹.
In test [1], “HSV2-gE_H245E_gI (from UniProt P89475 21-416; P06764 21-256) (receptor)” returned a Kd of 11900 nM and a Response of 0.168 nm. In test [2], this substance returned a Kd of 11900 nM, a Response (nm) of 0.168 nm, a koff of 0.00705 s⁻¹ and an association rate constant (kon) of 595 M⁻¹ s⁻¹.
In test [3], “HSV49 (HSV2- gE_P319K_gI) (from UniProt P89475 21-416; P06764 21-256) (receptor)” came in with a Kd of 1710 nM, a Relative Affinity (%) compared to control construct HSV34 of 7%, a koff of 0.00217 s⁻¹ and a kon of 1340 M⁻¹ s⁻¹.
Take “HSV45 (HSV2- gE_P317R_gI) (from UniProt P89475 21-416; P06764 21-256) (receptor)”: in test [3], the Kd stood at 1510 nM, the Relative Affinity (%) compared to control construct HSV34 worked out at 8%, the koff stood at 0.00347 s⁻¹ and the kon came out at 2340 M⁻¹ s⁻¹. For the same substance, in test [4], the Kd was 192 nM and 240 nM; the Response was 0.181 nm and 0.119 nm; the koff is 0.00137 s⁻¹ and 0.00156 s⁻¹; the kon was 7110 M⁻¹ s⁻¹ and 6520 M⁻¹ s⁻¹.
As to “HSV34 (HSV2-gE_gI) (from UniProt P89475 21-416; P06764 21-256) (receptor)”, in test [3], the Kd is 116 nM, the Relative Affinity (%) compared to control construct HSV34 is 100%, the koff was determined as 0.000541 s⁻¹ and the on-rate (kon) is 3870 M⁻¹ s⁻¹.
As for “HSV51 (HSV2- gE_H245A-P319A_gI) (from UniProt P89475 21-416; P06764 21-256) (receptor)”, in test [3], the koff was below 1e-07 s⁻¹ and the kon was found to be 11000 M⁻¹ s⁻¹.

The values are drawn from patent US20220273789A1.
